Laboratory results reported in publication doi:10.1101/2020.05.12.090472 (bioRxiv, 2020).
No end group written: not given here. *: point of attachment. Biotin = O=C1N[C@H]2[C@H](CS[C@H]2CCCCC(=O)*)N1

Biological target: Recombinant Cdk5/p25 complex (human Cdk5 and p25 with N-terminal GST-tags) (human, UniProt Q00535 1-292; Q15078 99-307)
Test: pull-down

binding result: binds
Binder: Biotin-ARAFGIPVRCYS [biotin-conjugated Cdk5i peptide]
